The data set can be described thus: Particle size of reconstituted freeze dried Factor XI by dynamic light scattering. Format: physicochemical. Particulars: sample exposed to a pulsed electromagnetic field compared to the control. An excerpt:
Experiment 1 was repeated but with Hemoleven (Factor XI) in place of the Factor VIII.

This is an account of results in patent US20250083113A1, “Apparatus for Improving Hydration and/or Reducing Particle Size of a Product and a Method of Use Thereof” (St Andrews Pharmaceutical Technology Limited, priority 2021, published 2025).

As to “Factor XI: Hemoleven (Factor XI), blood clotting factor”, the “% volume of larger particles” value is “significant reduction”.
